B1: Protein phosphatase 2C 16 (Arabidopsis thaliana (Mouse-ear cress)), Q9CAJ0 (parent)
chain: MEEMTPAVAMTLSLAANTMCESSPVEITQLKNVTDAADLLSDSENQSFCNGGTECTMEDVSELEEVGEQDLLKTLSDTRSGSSNVFDEDDVLSVVEDNSAVISEGLLVVDAGSELSLSNTAMEIDNGRVLATAIIVGESSIEQVPTAEVLIAGVNQDTNTSEVVIRLPDENSNHLVKGRSVYELDCIPLWGTVSIQGNRSEMEDAFAVSPHFLKLPIKMLMGDHEGMSPSLTHLTGHFFGVYDGHGGHKVADYCRDRLHFALAEEIERIKDELCKRNTGEGRQVQWDKVFTSCFLTVDGEIEGKIGRAVVGSSDKVLEAVASETVGSTAVVALVCSSHIVVSNCGDSRAVLFRGKEAMPLSVDHKPDREDEYARIENAGGKVIQWQGARVFGVLAMSRSIGDRYLKPYVIPEPEVTFMPRSREDECLILASDGLWDVMNNQEVCEIARRRILMWHKKNGAPPLAERGKGIDPACQAAADYLSMLALQKGSKDNISIIVIDLKAQRKFKTRT
partner: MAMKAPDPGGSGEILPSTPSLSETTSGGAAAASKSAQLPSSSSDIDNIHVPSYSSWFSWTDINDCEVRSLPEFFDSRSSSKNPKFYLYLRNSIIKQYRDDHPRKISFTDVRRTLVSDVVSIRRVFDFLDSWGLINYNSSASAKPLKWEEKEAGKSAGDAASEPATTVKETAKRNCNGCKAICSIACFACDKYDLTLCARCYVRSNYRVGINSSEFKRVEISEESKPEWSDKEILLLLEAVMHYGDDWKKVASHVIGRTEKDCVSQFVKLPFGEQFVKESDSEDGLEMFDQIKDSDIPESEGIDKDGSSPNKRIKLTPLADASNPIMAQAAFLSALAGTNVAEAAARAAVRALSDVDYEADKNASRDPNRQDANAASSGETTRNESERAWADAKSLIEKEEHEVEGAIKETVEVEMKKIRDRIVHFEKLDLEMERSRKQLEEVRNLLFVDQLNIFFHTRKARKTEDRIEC

Variants of: B1
Details: with swi3b_arath SWI3B

Variant | effect of a mutation on the interaction
G246D | disrupting interaction

From IntAct's records for PubMed 19033529
